# In article PMC9454738, “An FDA-Approved Antifungal, Ketoconazole, and Its Novel Derivative Suppress tGLI1-Mediated Breast Cancer Brain Metastasis by Inhibiting the DNA-Binding Activity of Brain Metastasis-Promoting Transcrip”:
# Target: N-tGLI1 (N-terminal truncated GLI1) (UniProt P08151-2 1-390)
# Experiment: EMSA; no drug; 5X binding buffer as printed: 50 mM Tris pH 7.5, 50 mM NaCl, 200 mM KCl, 5 mM MgCl2, 10 mM EDTA, 5 mM DTT, 250 ug/mL BSA, 25% glycerol; 50 ng/uL poly dI-dC; ~600 ng protein, 5 pmol probe in 20 uL; 20 min on ice (drug tests: 30 min preincubation on ice for GLI1 or at RT for N-tGLI1, then 30 min with probe); 6% TBE gel
# Conditions: protein: recombinant; tags: MBP tag cleaved with HRV 3C protease; label: 5' 6-FAM on both strands; blunt
# Sequence of N-tGLI1 (N-terminal truncated GLI1) (P08151 other isoform, or with tags, fused parts or gaps): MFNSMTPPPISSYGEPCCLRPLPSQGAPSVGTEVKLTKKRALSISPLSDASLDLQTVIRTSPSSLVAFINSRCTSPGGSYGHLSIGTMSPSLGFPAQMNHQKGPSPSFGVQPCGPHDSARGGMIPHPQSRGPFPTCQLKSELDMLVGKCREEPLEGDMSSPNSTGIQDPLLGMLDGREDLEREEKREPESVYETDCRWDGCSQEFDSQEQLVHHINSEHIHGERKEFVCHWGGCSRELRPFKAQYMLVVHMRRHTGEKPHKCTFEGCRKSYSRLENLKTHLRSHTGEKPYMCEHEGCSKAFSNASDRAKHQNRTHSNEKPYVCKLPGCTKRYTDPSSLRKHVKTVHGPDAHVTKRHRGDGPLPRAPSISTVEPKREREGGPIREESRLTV
binder,measurement,value
GLI1/tGLI1 consensus probe (dsDNA) DNA 1: CGAAGAGACCACCCAGGTAGCT DNA 2: AGCTACCTGGGTGGTCTCTTCG,binding result,binds
